Where a chain is given by its changes, count along the chain named. Names and notes keep the numbering of the source.
T1: SaPLP synthase (SaPdx1 + SaPdx2) (Staphylococcus aureus, UniProt Q2G0Q1)
T1 construct: gene pdxS; wild-type complex of separately expressed subunits, E. coli Rosetta (DE3), N-terminal His tags TEV-cleaved; up to 24-mer, substoichiometric in Pdx2 at rest, 12:12 in catalysis; with Pyridoxal 5'-phosphate synthase subunit PdxT
T1 sequence (Q2G0Q1 1-295): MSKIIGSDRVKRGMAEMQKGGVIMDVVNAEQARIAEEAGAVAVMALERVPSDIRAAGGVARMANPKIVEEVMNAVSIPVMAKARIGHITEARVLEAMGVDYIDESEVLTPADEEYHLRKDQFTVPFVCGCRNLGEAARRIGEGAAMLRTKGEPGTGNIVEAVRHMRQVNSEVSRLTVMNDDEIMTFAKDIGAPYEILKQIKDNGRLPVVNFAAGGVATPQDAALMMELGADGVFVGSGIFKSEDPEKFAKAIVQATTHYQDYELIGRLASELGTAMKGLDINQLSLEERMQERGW
T1 sequence (Q2G0Q0 1-186 partner): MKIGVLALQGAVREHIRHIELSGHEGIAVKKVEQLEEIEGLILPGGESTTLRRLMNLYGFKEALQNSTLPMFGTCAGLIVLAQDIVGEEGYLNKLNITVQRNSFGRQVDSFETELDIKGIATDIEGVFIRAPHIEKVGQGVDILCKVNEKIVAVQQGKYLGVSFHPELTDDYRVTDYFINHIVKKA

T2: SaPdx1 (Staphylococcus aureus, UniProt Q2G0Q1)
T2 construct: gene pdxS; synthetic gene, E. coli Rosetta (DE3), N-terminal 6xHis (TRX)-TEV tag cleaved; 297 residues printed; hexamer/dodecamer, dodecamer active; assayed without Pdx2, with ammonium sulfate
T2 sequence (Q2G0Q1 1-295): T1 sequence (Q2G0Q1 1-295)

B1: Staphylococcus aureus Pdx1 (PLP synthase subunit) (enzyme, S. aureus, UniProt A5IQ72 1-295, looked up)
chain: T1 sequence (Q2G0Q1 1-295)
notes: Pdx1 of S. aureus; Cloned into both pETM11/LIC (6xHis-TEV) and pETTRXA-1a/LIC (6xHis-TRX-TEV); Forms hexamers or dodecamers depending on the buffer; also called SaPdx1; source: E. coli Rosetta (DE3), purified (Ni-NTA, TEV cleavage, second Ni-NTA, SEC on Superdex 200); not shown: His6, N-terminal, cleaved
B2: Staphylococcus aureus Pdx2 (glutaminase subunit), wild type (enzyme, S. aureus, UniProt A5IQ73 1-186, looked up)
chain: T1 sequence (Q2G0Q0 1-186 partner)
B3: Staphylococcus aureus Pdx2 H165N (enzyme)
chain: T1 sequence (Q2G0Q0 1-186 partner) with H165N
notes: also called SaPdx2mut; SaPdx2_(H165N); source: E. coli Rosetta (DE3), purified (Ni-NTA, TEV cleavage, second Ni-NTA, SEC on Superdex 75)

Assays:
[1] = biological target: T1, SaPLP synthase (SaPdx1 + SaPdx2); test: PLP Schiff base with Tris, absorbance […] nm; type: biochemical; conditions: with R5P (1 mM in standard mix) and 20 mM glutamine, 40 uM Pdx1 and 40 uM Pdx2, 50 mM Tris-HCl pH 8, 150 mM NaCl, 37 °C; apparent; substrate inhibition at high G3P
SaPdx1 = biological target: T2, SaPdx1; test: PLP Schiff base with Tris, absorbance […] nm; type: biochemical; conditions: with R5P (1 mM in standard mix) and 20 mM ammonium sulfate, 40 uM enzyme, 50 mM Tris-HCl pH 8, 150 mM NaCl, 37 °C; apparent; substrate inhibition at high G3P
[2] = biological target: the molecule itself; test: SEC + other: dynamic light scattering; SaPdx1 purified in Tris-HCl buffer
[3] = biological target: B1; test: cell-based or functional assay
[4] = biological target: B1; test: SAXS; SEC-SAXS of the SaPdx1-SaPdx2 complexes (WT and mutant), 7 mg/ml, Superose 6 Increase 10/300; volume fractions of stoichiometries estimated with OLIGOMER from AF2-based models; conditions: both partners purified

For O=C[C@H](O)COP(=O)(O)O [glyceraldehyde 3-phosphate], the “Glyceraldehyde 3-phosphate / Ki” value [1] was 1900 ± 900 µM and the “Glyceraldehyde 3-phosphate / Ki” value (SaPdx1) was 3300 ± 900 µM.

With B1 the “stoichiometry N” value [2] was 6.

For B2, the “increase in the apparent kcat/KM ratio of PLP synthesis (G3P varied) for the SaPLP complex compared to SaPdx1 + ammonia” value [3] was 5.7 fold and the “increase in the apparent kcat/KM ratio of PLP synthesis (R5P varied) for the SaPLP complex compared to SaPdx1 + ammonia” value [3] was about 21 fold.

With B3 the “stoichiometry N” value [4] was 1.
